Residue numbers refer to the chain shown, from its start. Names and notes keep the numbering of the source.

In the assay the target is T1, CD20 protein on the surface of B-cells (Raji cells, a Burkitt's lymphoma cell line) (human, UniProt P11836 1-297).
T1 construct: also called CD20 antigen; B lymphocyte antigen CD20
T1 sequence: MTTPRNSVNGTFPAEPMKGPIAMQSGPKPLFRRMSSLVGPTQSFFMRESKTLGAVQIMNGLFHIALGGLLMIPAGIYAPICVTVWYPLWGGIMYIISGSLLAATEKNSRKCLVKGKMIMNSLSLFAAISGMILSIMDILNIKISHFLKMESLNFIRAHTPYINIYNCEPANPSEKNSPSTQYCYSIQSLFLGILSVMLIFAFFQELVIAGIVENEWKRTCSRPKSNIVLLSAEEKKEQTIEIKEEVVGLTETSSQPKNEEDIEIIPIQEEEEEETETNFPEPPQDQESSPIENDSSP
Nature of the assay: indirect immunofluorescence on Raji cells, flow cytometry. On the procedure:
Binding affinity of an antibody to its target antigen can be an indicator of antibody efficacy. An indirect immunofluorescence cell-based binding assay was conducted to determine the dissociation constant (KD) between select CD20-binding proteins of the invention and the targeted antigen (CD20 protein on the surface of B-Cells). […] Because of this, the raw data was fitted to the following equation: […]
Background: A flow cytometer gives signals particle by particle.

B1: CD20-binding protein with M1/M2/M3/M4/M7 modifications (V3Q, A9S, I10S, V59S, L153D in the rituximab light chain) (antibody, human IgG1, kappa, V domains shown)
VH: QVQLQQPGAELVKPGASVKMSCKASGYTFTSYNMHWVKQTPGRGLEWIGAIYPGNGDTSYNQKFKGKATLTADKSSSTAYMQLSSLTSEDSAVYYCARSTYYGGDWYFNVWGAGTTVTVSA
VL: QIQLSQSPSSLSASPGEKVTMTCRASSSVSYIHWFQQKPGSSPKPWIYATSNLASGVPSRFSGSGSGTSYSLTISRVEAEDAATYYCQQWTSNPPTFGGGTKLEIKR
notes: Heavy chain unmodified; whole IgG as for the wild type; also called M1/2/3/4/7
As for B1, the binding result is listed as “binds”.

B2: CD20-binding protein with the M9 modification (Y101S in the rituximab Fab heavy chain, in the CDR) (antibody, human IgG1, kappa, V domains shown)
VH: B1 VH with Y101S
VL: B1 VL with Q3V, S9A, S10I, S59V
notes: Whole IgG as for the wild type; also called M9 (Y101S); CDR mutation
As for B2, the binding result was “no binding”.

Source of the values: US20150239977A1 (MIT, published 2015).
